# In IntAct's records for PubMed 26388029:
# What was measured:
# ubp1_human USP1 = ubp1_human USP1 (UniProt O94782)
# Sequence of ubp1_human USP1 (O94782 whole entry): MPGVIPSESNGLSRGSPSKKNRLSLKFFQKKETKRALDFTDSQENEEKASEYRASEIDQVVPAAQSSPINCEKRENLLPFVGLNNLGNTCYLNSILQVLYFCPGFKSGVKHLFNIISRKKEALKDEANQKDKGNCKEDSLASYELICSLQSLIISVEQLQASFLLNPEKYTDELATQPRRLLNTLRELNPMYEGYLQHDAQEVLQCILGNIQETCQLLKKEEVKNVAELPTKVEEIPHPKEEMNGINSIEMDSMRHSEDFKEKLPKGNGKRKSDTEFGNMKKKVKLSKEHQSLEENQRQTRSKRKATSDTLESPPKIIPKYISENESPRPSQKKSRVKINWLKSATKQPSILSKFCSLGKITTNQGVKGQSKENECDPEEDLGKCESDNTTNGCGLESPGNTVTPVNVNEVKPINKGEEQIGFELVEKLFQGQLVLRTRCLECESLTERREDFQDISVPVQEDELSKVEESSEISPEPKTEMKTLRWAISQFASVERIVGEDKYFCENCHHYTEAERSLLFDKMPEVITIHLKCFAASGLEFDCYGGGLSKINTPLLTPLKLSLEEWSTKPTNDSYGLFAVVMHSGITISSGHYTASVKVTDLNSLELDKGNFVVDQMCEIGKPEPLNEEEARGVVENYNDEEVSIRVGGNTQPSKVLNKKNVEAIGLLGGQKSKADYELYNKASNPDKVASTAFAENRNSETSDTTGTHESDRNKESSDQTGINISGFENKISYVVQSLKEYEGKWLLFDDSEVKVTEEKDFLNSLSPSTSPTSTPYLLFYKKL
# Sequence of USP46, P62068-1 (P62068 whole entry): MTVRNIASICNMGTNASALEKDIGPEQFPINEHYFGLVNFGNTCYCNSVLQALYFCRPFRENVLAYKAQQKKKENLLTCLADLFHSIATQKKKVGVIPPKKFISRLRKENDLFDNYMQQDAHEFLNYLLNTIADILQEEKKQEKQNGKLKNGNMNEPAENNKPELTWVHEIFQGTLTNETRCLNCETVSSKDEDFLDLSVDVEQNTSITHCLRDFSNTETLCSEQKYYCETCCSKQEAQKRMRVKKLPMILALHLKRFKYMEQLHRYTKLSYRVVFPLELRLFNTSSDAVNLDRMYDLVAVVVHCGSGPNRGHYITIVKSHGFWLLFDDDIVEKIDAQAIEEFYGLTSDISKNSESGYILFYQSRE
effect of a mutation on the interaction (ubp1_human USP1),"effect of a mutation on the interaction (USP46, P62068-1)",Substance
disrupting interaction strength,disrupting interaction strength,"WD repeat-containing protein 48 (Homo sapiens), Q8TAF3-1 K214E;W256A;R272D"
–,decreasing interaction strength,"WD repeat-containing protein 48 (Homo sapiens), Q8TAF3-1 S170Y"
